Test results taken from the supplement of paper PMC9170038.

Tested on: MS2 coat protein
Test: apparent KD of MS2 coat protein; designed switch direction (-1 OFF switch, 1 ON switch): -1; higher = weaker reporter binding
Method in brief: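 Designed RNA switches with common flanks were transcribed on Illumina chips by stalled E. coli RNA polymerase and titrated with SNAP-549-labelled MS2 coat protein, from 0.7 or 1.5 nM doubling to 3 µM, in Tris-HCl pH 7.5 buffer with KCl, MgCl2, BSA, DTT, tRNA and Tween-20. Steps lasted 0.8–1.5 h (lowest) to 10–20 min (highest). Titrations ran without input, with 200 uM small-molecule ligand, or with an oligonucleotide input. Normalised cluster fluorescence was curve-fitted, and apparent KD is the per-design median over clusters.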

[1] = Eterna round: R95, input ligand: FMN 200 uM
[2] = Eterna round: R95, input ligand: microRNA oligo, concentration not stated
[3] = Eterna round: R95, input ligand: none
[4] = input ligand: microRNA oligo, concentration not stated

Row | Sequence | apparent KD of MS2 coat protein [1] [nM] | apparent KD of MS2 coat protein [2] [nM] | apparent KD of MS2 coat protein [3] [nM] | apparent KD of MS2 coat protein (input ligand: FMN 200 uM) [nM] | apparent KD of MS2 coat protein (input ligand: none) [nM] | apparent KD of MS2 coat protein [4] [nM]
1 | AGCCCUUGUGUCAGGAUAUGCAUCCUUAAAGGACGGCAGAAGGGACAUGAGGAUCACCCAUGUAAAUAGAAAUU [Onatatge] (puzzle: Brourd's mod of Exclusion 4) | 16.2 | 84 | 141 |  |  | 
2 | AGCCUCGCUGUUAGGAUAUGCAUGGAUAAGCUCCGGCAGAAGGGACAUGAGGAUCACCCAUGUAACGUAGUUUA [BmEX4 B.4] (Eterna round: R97, puzzle: Brourd's mod of Exclusion 4) |  |  |  | 31.8 | 25.2 | 
3 | AGCGAGGAGACAGGAUAUGAGAAUAGAUAGAACUCAGAAGGGUCACAUGAGGAUCACCCAUGUAAAGUCUUGAGGCUGCGUGGU [Prohibition 8 - Jieux - Exclusion NG 1] (Eterna round: R96, puzzle: Exclusion NG 1) |  |  |  | 239 | 88.2 | 84.3
4 | AGCGCCAUCGUGAGAUGGCGUAUUACAUGAGGAUCACCCAUGUAGGAUAUCGAUUGCUUUGCAGUCGAGAAGGACAUGUUCUUU [JL ENG3 3.80 Mod D] (Eterna round: R96, puzzle: Exclusion NG 3) |  |  |  | 27.1 | 23.4 | 19.3
5 | AGCGCCAUCGUGAGAUGGCGUAUUACAUGAGGAUCACCCAUGUAGGAUAUCGAUUGCUUUGCAGUCGAGAAGGGCAUGUCCUAG [JL ENG3 3.80 Mod H] (Eterna round: R96, puzzle: Exclusion NG 3) |  |  |  |  |  | 25
6 | AGCGCUUACGUAGGAUAUGCAUGAGGAUCACCCAUGCAACCACAUUUAACAUGAGGAUCACCCAUGUAGAAGGACGGGUGCGCA [pwkr exNG2 2xF5 1xFMN.2] (Eterna round: R96, puzzle: Exclusion NG 2) |  |  |  | 67.8 | 27.9 | 20.4
7 | AGCGUGGAGACAGGAUAUGAGAAUAGAUAGAACUCAGAAGGGUCACAUGAGGAUCACCCAUGUAAAGUCUUGAGGAUGAGUGAU [Prohibition 4 - Jieux - Exclusion NG 1] (Eterna round: R96, puzzle: Exclusion NG 1) |  |  |  | 192 | 73.5 | 57.7
8 | AGCUAGAUAGGAUAUGCCCGGGAUAACAUGAGGAUCACCCAUGUGGCCGAAUCAAGUCCAGCAGAAGGGUUUGGGA [Mod of ViennaUCT 11 - Jieux - Exclusion 5] (Eterna round: R97, puzzle: Exclusion 5) |  |  |  | 43.2 | 34.8 | 
9 | AGCUAGGCAGGAUAUACAUGAGGAUCACCCAUGUAAAUUUUUCGUUUAACUUGAAUGUGUAGAAGGGCCAUAAA [Ex3 #51] (Eterna round: R97, puzzle: Exclusion 3) |  |  |  | 23.9 | 22.4 | 
10 | AGCUGACAAGGAUAUACAUGAGGAUCACCCAUGUUGGUCAAGCGACGAUAGUCGCAAUGUAGAAGGUGUCAGCU [E3/8-C1] (Eterna round: R97, puzzle: Exclusion 3) |  |  |  | 1750 | 341 | 
11 | AGCUGGAGAGGAUAUACGUAGGAAAAAAAAGUCUGAUCACUACAUGAGGAUCACCCAUGUAGAAGGCUCUGGCA [Ex2 Design 162: Sub-opt 26] (Eterna round: R96, puzzle: Exclusion 2) |  |  |  | 104 | 20.5 | 16.5
12 | AGCUGUGGCCGAGGAUAUACACAUGAGGAUCACCCAUGUAGGCGCGGAUACGCGCUAAAAUAAAUGUAGAAGGCGGUCUCAGCA [Eli eng2 - 055] (Eterna round: R96, puzzle: Exclusion NG 2) |  |  |  | 7.06 | 11.8 | 5
13 | AGCUGUGGCCGAGGAUAUCACAUGAGGAUCACCCAUGUACAUGAUUAGGCCUGGUAACAGGCUCGUGAGAAGGCGGUCUCAGCA [Eli eng2 - 010] (Eterna round: R96, puzzle: Exclusion NG 2) |  |  |  | 26.7 | 37.6 | 31.1
14 | AGCUGUGGCCGAGGAUAUCACGAACCAUGGAAAACCAUGGAACUCACACAUGAGGAUCACCCAUGUGAGAAGGCGGUCUCAGCA [Eli eng2 - 021] (Eterna round: R96, puzzle: Exclusion NG 2) |  |  |  | 16.3 | 15.1 | 8.68
15 | AGCUGUGGCCGAGGAUAUCUAAAACCUCAAAACGAAAUAUAAUCGAACAUGAGGAUCACCCAUGUAGAGAAGGCGGUCUCAGCA [Eli eng2 - 031] (Eterna round: R96, puzzle: Exclusion NG 2) |  |  |  |  |  | 214
16 | AGCUGUGGCCGAGGAUAUCUACAUGAGGAUCACCCAUGUAAAGGGUGUAUCGGGAAAACCUCGAUGGAGAAGGCGGUCUCAGCA [Eli eng2 - 047] (Eterna round: R96, puzzle: Exclusion NG 2) |  |  |  | 95.5 | 296 | 45.3

Row | Sequence | apparent KD of MS2 coat protein [1] [nM] | apparent KD of MS2 coat protein [2] [nM] | apparent KD of MS2 coat protein [3] [nM] | apparent KD of MS2 coat protein (input ligand: FMN 200 uM) [nM] | apparent KD of MS2 coat protein (input ligand: none) [nM] | apparent KD of MS2 coat protein [4] [nM]
17 | AGCUGUGGCCGAGGAUAUCUGUCCCAUAAAACCGAAAUAUAAUCGGACAUGAGGAUCACCCAUGUAGAGAAGGCGGUCUCAGCA [Eli eng2 - 098] (Eterna round: R96, puzzle: Exclusion NG 2) |  |  |  |  |  | 31.3
18 | AGCUUUUUGUUCGUCUUAUACAUGAGGAUCACCCAUGUAUUGGACCGCAUCGAUAGAUGUAGACCAAGAAGCAUGGG [Omdei Mir OFFv1 C5] (Eterna round: R97, puzzle: Sensor, turn-off variant 1) |  |  |  | 50.6 | 48.2 | 
19 | AGGAAGCAAGGAUAUACGAGGAGAAGGUGUCCAUCUAAAGGACAUGAGGAUCACCCAUGUAGAAGGUGCGAGAA [JR_Exclu2_Sub049] (puzzle: Exclusion 2) | 49.6 | 210 | 189 |  |  | 
20 | AGGCACUAAGGAUAUACAAAGGUGCUGCGUAUGCUAGCCAGACAUGAGGAUCACCCAUGUAGAAGGUAGGAAUA [EX2 B.14] (Eterna round: R97, puzzle: Exclusion 2) |  |  |  | 16.4 | 16.8 | 
21 | AGGCCUCGAGGAUAUACAUGAGGAUCACCCAUGUCAUAAUAGAUUGUUAUGAGACAUCGUAGAAGGCGAUGGCC [Eternabot (L2) Solution 98] (Eterna round: R97, puzzle: Exclusion 3) |  |  |  | 78.1 | 30 | 
22 | AGGUAGUCAGGAUAUUAGGAGUAGCGGGAUAACGCUACGAGUGAGAAGGGACAUGAGGAUCACCCAUGUUUAUU [JR_Ex4_Sub069] (Eterna round: R97, puzzle: Exclusion 4) |  |  |  | 70.3 | 26.8 | 
23 | AGGUCAGAAGGAUAUACAUGAGGAUCACCCAUGUGGGAUACAACGAGCCGUUGUUCAGGUAGAAGGUCUAAAAU [Eternabot (Original) Solution 33] (Eterna round: R97, puzzle: Exclusion 3) |  |  |  | 86 | 77.3 | 
24 | AGGUGCUUCAGGAGACAUGAGGAUCACCCAUGUUGAGUUAGCGAGGAUAUCGGUAACCAUUGUGAUGAGAAGGCGCAAACCAGA [Ex NG3 #44] (Eterna round: R96, puzzle: Exclusion NG 3) |  |  |  | 60.5 | 47.3 | 15.6
25 | AGGUGCUUCUGGAAACAUGAGGAUCACCCAUGUUGAGUUAGCGAGGAUAUCGGUAACAAUUGUUAUGAGAAGGCGCAAACCAGA [Ex NG3 #36] (Eterna round: R96, puzzle: Exclusion NG 3) |  |  |  | 17 | 20.7 | 12.5
26 | AGUAACCGUCACGAAAGUGAUGGUUACACAAGCAAAUGUACAUGAGGAUCACCCAUGUCCUCAUUUGCUCGUCUUAU [Sensor 3 - 45] (puzzle: Sensor v3, turn-off variant 2) | 17.2 | 379 | 18.3 |  |  | 
27 | AGUAACCGUCACGAAAGUGAUGGUUACACAAGUGUAAUAACAUGAGGAUCACCCAUGUCCUCAUUUGCUCGUUUUAU [Sensor 3 - 37] (puzzle: Sensor v3, turn-off variant 2) | 45.1 | 144 | 140 |  |  | 
28 | AGUAACUAUCACGAAAGUGAUAGUUACACAAGCAGUGACACAUGAGGAUCACCCAUGUCCUCAUUUGCUCGUCUUAU [Sensor 3 - 29] (puzzle: Sensor v3, turn-off variant 2) | 614 | 637 | 478 |  |  | 
29 | AGUACAUGAGGAUCACCCAUGUCAGUUAUCAAUGGCACGCCUAAGGAUAUUGAGCGUCAAAGGCUCAAGAAGGUAGCUUUAUGC [Eternabot solution 12] (Eterna round: R96, puzzle: Exclusion NG 3) |  |  |  | 13.7 | 25.6 | 16.7
30 | AGUACUAACACGAAAGUGUUAGUACAAUAAGCUUGUAAAACAUGAGGAUCACCCAUGUCCUCAUAAGCUCGUCUUAU [Mat - Sensor v3 - Turn-off var 2 - D47] (puzzle: Sensor v3, turn-off variant 2) | 250 | 11.5 | 446 |  |  | 
31 | AGUACUAACACGAAAGUGUUAGUACAAUAAGCUUGUGUUACAUGAGGAUCACCCAUGUCCUCAUAAGCUCGUCUUAG [Mat - Sensor v3 - Turn-off var 2 - D50] (puzzle: Sensor v3, turn-off variant 2) | 45.9 | 351 | 45.4 |  |  | 
32 | AGUACUAACACGGAUGUGUUAGUACAAUAAGCUUGUGAAACAUGAGGAUCACCCAUGUCCUCAUAAGCUCGUCUUAU [salish99_TOv2_r3_067] (puzzle: Sensor v3, turn-off variant 2) | 15.5 | 677 | 14.7 |  |  | 
